We go through one substance from article PMC2266617.

This assay concerns the target Kv4.2-T1 domain (tetramerization domain of Kv4.2) with a poly-His tag at the NH2 terminus. Nature of the assay: SEC.

Kv4.2-T1 domain (tetramerization domain of Kv4.2) with a poly-His tag at the NH2 terminus, sequence (Q63881 whole entry, the tested form may be a part): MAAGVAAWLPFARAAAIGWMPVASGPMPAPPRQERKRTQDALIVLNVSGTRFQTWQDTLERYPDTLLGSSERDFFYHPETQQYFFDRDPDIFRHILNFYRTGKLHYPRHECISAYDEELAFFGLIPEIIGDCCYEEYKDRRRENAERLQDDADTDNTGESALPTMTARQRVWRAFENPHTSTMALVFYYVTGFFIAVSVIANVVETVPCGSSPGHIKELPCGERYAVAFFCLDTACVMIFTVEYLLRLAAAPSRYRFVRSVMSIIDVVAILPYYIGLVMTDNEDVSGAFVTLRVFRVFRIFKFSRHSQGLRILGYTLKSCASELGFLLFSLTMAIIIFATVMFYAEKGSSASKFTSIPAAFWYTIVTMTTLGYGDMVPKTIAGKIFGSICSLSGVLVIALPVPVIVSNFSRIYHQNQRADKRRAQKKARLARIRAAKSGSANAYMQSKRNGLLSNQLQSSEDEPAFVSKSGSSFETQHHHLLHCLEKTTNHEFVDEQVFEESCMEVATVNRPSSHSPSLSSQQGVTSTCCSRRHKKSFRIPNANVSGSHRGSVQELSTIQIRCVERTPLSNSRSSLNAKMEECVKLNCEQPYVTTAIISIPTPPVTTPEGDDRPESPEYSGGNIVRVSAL

For orientation: stoichiometry N means a count of units in the complex or per binding partner. Take “Kv4.2-T1 domain (tetramerization domain of Kv4.2) with a poly-His tag at the NH2 terminus (domain or fragment)”: the stoichiometry N worked out at 4.
